Read-outs that look alike come from different tables or passages of the source.
T1: Pyrococcus furiosus PCNA
T1 sequence: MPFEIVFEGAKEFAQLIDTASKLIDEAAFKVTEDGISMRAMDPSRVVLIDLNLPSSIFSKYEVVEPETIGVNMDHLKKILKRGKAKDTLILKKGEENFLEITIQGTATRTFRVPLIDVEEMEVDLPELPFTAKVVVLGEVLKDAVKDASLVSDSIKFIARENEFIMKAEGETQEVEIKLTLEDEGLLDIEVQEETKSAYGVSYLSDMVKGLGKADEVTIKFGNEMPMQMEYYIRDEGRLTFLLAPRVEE

T2: Pyrococcus furiosus PCNA
T2 chain: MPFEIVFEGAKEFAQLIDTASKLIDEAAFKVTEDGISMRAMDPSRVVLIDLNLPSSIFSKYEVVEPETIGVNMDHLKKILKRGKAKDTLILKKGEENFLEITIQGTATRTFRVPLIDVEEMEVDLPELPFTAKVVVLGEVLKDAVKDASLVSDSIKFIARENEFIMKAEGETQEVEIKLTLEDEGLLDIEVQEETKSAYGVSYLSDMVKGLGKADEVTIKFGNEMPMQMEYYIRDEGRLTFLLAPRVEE


What was measured:
[1] = system: T1, Pyrococcus furiosus PCNA
[2] = biological target: T2, Pyrococcus furiosus PCNA

Molecule | dNTP incorporation into primed M13 DNA [1] | dNTP incorporation into primed M13 DNA [2]
cloned Pfu DNA polymerase (Pyrococcus furiosus pol I) | PCNA was shown to stimulate dNTP incorporation by both Pfu (pol I) and P. furiosus pol II DNA polymerases | 
P. furiosus pol II DNA polymerase (recombinant CBP-DP1/DP2) (protein) chain 1: MDEFVKSLLKANYLITPSAYYLLREYYEKGEFSIVELVKFARSRESYIITDALATEFLKVKGLEPILPVETKGGFVSTGESQKEQSYEESFGTKEEISQEIKEGESFISTGSEPLEEELNSIGIEEIGANEELVSNGNDNGGEAIVFDKYGYPMVYAPEEIEVEEKEYSKYEDLTIPMNPDFNYVEIKEDYDVVFDVRNVKLKPPKVKNGNGKEGEIIVEAYASLFRSRLKKLRKILRENPELDNVVDIGKLKYVKEDETVTIIGLVNSKREVNKGLIFEIEDLTGKVKVFLPKDSEDYREAFKVLPDAVVAFKGVYSKRGILYANKFYLPDVPLYRRQKPPLEEKVYAILISDIHVGSKEFCENAFIKFLEWLNGNVETKEEEEIVSRVKYLIIAGDVVDGVGVYPGQYADLTIPDIFDQYEALANLLSHVPKHITMFIAPGNHDAARQAIPQPEFYKEYAKPIYKLKNAVIISNPAVIRLHGRDFLIAHGRGIEDVVGSVPGLTHHKPGLPMVELLKMRHVAPMFGGKVPIAPDPEDLLVIEEVPDVVHMGHVHVYDAVVYRGVQLVNSATWQAQTEFQKMVNIVPTPAKVPVVDIDTAKVVKVLDFSGWC chain 2: MELPKEIEEYFEMLQREIDKAYEIAKKARSQGKDPSTDVEIPQATDMAGRVESLVGPPGVAQRIRELLKEYDKEIVALKIVDEIIEGKFGDFGSKEKYAEQAVRTALAILTEGIVSAPLEGIADVKIKRNTWADNSEYLALYYAGPIRSSGGTAQALSVLVGDYVRRKLGLDRFKPSGKHIERMVEEVDLYHRAVSRLQYHPSPDEVRLAMRNIPIEITGEATDDVEVSHRDVEGVETNQLRGGAILVLAEGVLQKAKKLVKYIDKMGIDGWEWLKEFVEAKEKGEEIEESESKAEESKVETRVEVEKGFYYKLYEKFRAEIAPSEKYAKEIIGGRPLFAGPSENGGFRLRYGRSRVSGFATWSINPATMVLVDEFLAIGTQMKTERPGKGAVVTPATTAEGPIVKLKDGSVVRVDDYNLALKIRDEVEEILYLGDAIIAFGDFVENNQTLLPANYVEEWWIQEFVKAVNEAYEVELRPFEENPRESVEEAAEYLEVDPEFLAKMLYDPLRVKPPVELAIHFSEILEIPLHPYYTLYWNTVNPKDVERLWGVLKDKATIEWGTFRGIKFAKKIEISLDDLGSLKRTLELLGLPHTVREGIVVVDYPWSAALLTPLGNLEWEFKAKPFYTVIDIINENNQIKLRDRGISWIGARMGRPEKAKERKMKPPVQVLFPIGLAGGSSRDIKKAAEEGKIAEVEIAFFKCPKCGHVGPETLCPECGIRKELIWTCPKCGAEYTNSQAEGYSYSCPKCNVKLKPFTKRKIKPSELLNRAMENVKVYGVDKLKGVMGMTSGWKIAEPLEKGLLRAKNEVYVFKDGTIRFDATDAPITHFRPREIGVSVEKLRELGYTHDFEGKPLVSEDQIVELKPQDVILSKEAGKYLLRVARFVDDLLEKFYGLPRFYNAEKMEDLIGHLVIGLAPHTSAGIVGRIIGFVDALVGYAHPYFHAAKRRNCDGDEDSVMLLLDALLNFSRYYLPEKRGGKMDAPLVITTRLDPREVDSEVHNMDVVRYYPLEFYEATYELKSPKELVGVIERVEDRLGKPEMYYGIKFTHDTDDIALGPKMSLYKQLGDMEEKVKRQLTLAERIRAVDQHYVAETILNSHLIPDLRGNLRSFTRQEFRCVKCNTKYRRPPLDGKCPVCGGKIVLTVSKGAIEKYLGTAKMLVANYNVKPYTRQRICLTEKDIDSLFEYLFPEAQLTLIVDPNDICMKMIKERTGETVQGGLLENFNSSGNNGKKIEKKEKKAKEKPKKKKVISLDDFFSKR |  | PCNA was shown to stimulate dNTP incorporation by both Pfu (pol I) and P. furiosus pol II DNA polymerases

From patent US20090221029
